# Assay results from IntAct's records for PubMed 15930137.
# B1: E3 ubiquitin-protein ligase NHLRC1 (Homo sapiens), Q6VVB1 (parent)
# chain: MAAEASESGPALHELMREAEISLLECKVCFEKFGHRQQRRPRNLSCGHVVCLACVAALAHPRTLALECPFCRRACRGCDTSDCLPVLHLIELLGSALRQSPAAHRAAPSAPGALTCHHTFGGWGTLVNPTGLALCPKTGRVVVVHDGRRRVKIFDSGGGCAHQFGEKGDAAQDIRYPVDVTITNDCHVVVTDAGDRSIKVFDFFGQIKLVIGGQFSLPWGVETTPQNGIVVTDAEAGSLHLLDVDFAEGVLRRTERLQAHLCNPRGVAVSWLTGAIAVLEHPLALGTGVCSTRVKVFSSSMQLVGQVDTFGLSLYFPSKITASAVTFDHQGNVIVADTSGPAILCLGKPEEFPVPKPMVTHGLSHPVALTFTKENSLLVLDTASHSIKVYKVDWG
# partner: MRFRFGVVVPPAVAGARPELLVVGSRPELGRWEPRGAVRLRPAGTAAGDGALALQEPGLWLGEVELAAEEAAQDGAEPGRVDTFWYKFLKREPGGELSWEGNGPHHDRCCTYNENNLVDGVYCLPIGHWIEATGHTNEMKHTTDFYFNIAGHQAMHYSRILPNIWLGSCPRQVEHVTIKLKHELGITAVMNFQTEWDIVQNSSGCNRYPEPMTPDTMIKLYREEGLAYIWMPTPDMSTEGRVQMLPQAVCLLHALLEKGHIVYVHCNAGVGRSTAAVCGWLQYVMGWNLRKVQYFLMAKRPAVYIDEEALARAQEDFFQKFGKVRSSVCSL
# Variants of: B1
# Conditions: with epm2a_human EPM2A
row,Variant,effect of a mutation on the interaction
1,E280K,disrupting interaction
2,Q302P,disrupting interaction

# Variants of: B1
# Conditions: with epm2a_human EPM2A
# Remark: another data set of the same source
row,Variant,effect of a mutation on the interaction
1,C26S,decreasing interaction
2,F33S,decreasing interaction

# Other lines, results leading:
row,effect of a mutation on the interaction,Variant
1,decreasing interaction,E280K
2,decreasing interaction,Q302P
